Test results taken from patent US20160237153A1 (DUKE UNIVERSITY, published 2016).

Experiments:
[1] = target: T1, human NaV1.3 expressed in HEK293 cells (human, UniProt Q9NY46 1-2000); experiment: cell-based or functional assay
[2] = target: T2, human NaV1.7 expressed in HEK293 cells (human, UniProt Q15858 1-1988); experiment: cell-based or functional assay
[3] = target: T3, human NaV1.4 expressed in HEK293 cells (human, UniProt P35499 1-1836); experiment: cell-based or functional assay
[4] = target: T4, mouse NaV1.6 expressed in HEK293 cells (mouse, UniProt Q9WTU3 1-1978); experiment: cell-based or functional assay
[5] = target: T5, mouse NaV1.5 expressed in HEK293 cells (mouse, UniProt Q9JJV9 1-2019); experiment: cell-based or functional assay
[6] = target: T6, human NaV1.1 expressed in HEK293 cells (human, UniProt P35498 1-2009); experiment: cell-based or functional assay
[7] = target: T7, rat NaV1.2 expressed in HEK293 cells (rat, UniProt P04775 1-2005); experiment: cell-based or functional assay
[8] = target: T8, rat NaV1.8 expressed in HEK293 cells (rat, UniProt Q62968 1-1956); experiment: cell-based or functional assay
[9] = target: T2, human NaV1.7 expressed in HEK293 cells; experiment: fraction bound = 1 - I/I0 from whole-cell voltage clamp of hNaV1.7 in HEK293 cells, 30 ms pulses to -10 mV from -120 mV at 10 Hz; mean±S.E.M., n=10
[10] = target: T1, human NaV1.3 expressed in HEK293 cells; experiment: cell-based or functional assay; remark: listed apart in the source
[11] = target: T2, human NaV1.7 expressed in HEK293 cells; experiment: cell-based or functional assay; remark: listed apart in the source
[12] = target: T3, human NaV1.4 expressed in HEK293 cells; experiment: cell-based or functional assay; remark: listed apart in the source
[13] = target: T4, mouse NaV1.6 expressed in HEK293 cells; experiment: cell-based or functional assay; remark: listed apart in the source
[14] = target: T5, mouse NaV1.5 expressed in HEK293 cells; experiment: cell-based or functional assay; remark: listed apart in the source
[15] = target: T6, human NaV1.1 expressed in HEK293 cells; experiment: cell-based or functional assay; remark: listed apart in the source
[16] = target: T7, rat NaV1.2 expressed in HEK293 cells; experiment: cell-based or functional assay; remark: listed apart in the source
[17] = target: T8, rat NaV1.8 expressed in HEK293 cells; experiment: cell-based or functional assay; remark: listed apart in the source
[18] = target: T2, human NaV1.7 expressed in HEK293 cells; experiment: apparent KD from whole-cell voltage clamp of hNaV1.7 in HEK293 cells at 10 Hz; fraction bound Y=1-I/I0 fitted to a one-site binding equation; apparent KD from inhibition of peak sodium current (Y=1-I/IO), one-site fit, n=10

T1 sequence (Q9NY46 whole entry): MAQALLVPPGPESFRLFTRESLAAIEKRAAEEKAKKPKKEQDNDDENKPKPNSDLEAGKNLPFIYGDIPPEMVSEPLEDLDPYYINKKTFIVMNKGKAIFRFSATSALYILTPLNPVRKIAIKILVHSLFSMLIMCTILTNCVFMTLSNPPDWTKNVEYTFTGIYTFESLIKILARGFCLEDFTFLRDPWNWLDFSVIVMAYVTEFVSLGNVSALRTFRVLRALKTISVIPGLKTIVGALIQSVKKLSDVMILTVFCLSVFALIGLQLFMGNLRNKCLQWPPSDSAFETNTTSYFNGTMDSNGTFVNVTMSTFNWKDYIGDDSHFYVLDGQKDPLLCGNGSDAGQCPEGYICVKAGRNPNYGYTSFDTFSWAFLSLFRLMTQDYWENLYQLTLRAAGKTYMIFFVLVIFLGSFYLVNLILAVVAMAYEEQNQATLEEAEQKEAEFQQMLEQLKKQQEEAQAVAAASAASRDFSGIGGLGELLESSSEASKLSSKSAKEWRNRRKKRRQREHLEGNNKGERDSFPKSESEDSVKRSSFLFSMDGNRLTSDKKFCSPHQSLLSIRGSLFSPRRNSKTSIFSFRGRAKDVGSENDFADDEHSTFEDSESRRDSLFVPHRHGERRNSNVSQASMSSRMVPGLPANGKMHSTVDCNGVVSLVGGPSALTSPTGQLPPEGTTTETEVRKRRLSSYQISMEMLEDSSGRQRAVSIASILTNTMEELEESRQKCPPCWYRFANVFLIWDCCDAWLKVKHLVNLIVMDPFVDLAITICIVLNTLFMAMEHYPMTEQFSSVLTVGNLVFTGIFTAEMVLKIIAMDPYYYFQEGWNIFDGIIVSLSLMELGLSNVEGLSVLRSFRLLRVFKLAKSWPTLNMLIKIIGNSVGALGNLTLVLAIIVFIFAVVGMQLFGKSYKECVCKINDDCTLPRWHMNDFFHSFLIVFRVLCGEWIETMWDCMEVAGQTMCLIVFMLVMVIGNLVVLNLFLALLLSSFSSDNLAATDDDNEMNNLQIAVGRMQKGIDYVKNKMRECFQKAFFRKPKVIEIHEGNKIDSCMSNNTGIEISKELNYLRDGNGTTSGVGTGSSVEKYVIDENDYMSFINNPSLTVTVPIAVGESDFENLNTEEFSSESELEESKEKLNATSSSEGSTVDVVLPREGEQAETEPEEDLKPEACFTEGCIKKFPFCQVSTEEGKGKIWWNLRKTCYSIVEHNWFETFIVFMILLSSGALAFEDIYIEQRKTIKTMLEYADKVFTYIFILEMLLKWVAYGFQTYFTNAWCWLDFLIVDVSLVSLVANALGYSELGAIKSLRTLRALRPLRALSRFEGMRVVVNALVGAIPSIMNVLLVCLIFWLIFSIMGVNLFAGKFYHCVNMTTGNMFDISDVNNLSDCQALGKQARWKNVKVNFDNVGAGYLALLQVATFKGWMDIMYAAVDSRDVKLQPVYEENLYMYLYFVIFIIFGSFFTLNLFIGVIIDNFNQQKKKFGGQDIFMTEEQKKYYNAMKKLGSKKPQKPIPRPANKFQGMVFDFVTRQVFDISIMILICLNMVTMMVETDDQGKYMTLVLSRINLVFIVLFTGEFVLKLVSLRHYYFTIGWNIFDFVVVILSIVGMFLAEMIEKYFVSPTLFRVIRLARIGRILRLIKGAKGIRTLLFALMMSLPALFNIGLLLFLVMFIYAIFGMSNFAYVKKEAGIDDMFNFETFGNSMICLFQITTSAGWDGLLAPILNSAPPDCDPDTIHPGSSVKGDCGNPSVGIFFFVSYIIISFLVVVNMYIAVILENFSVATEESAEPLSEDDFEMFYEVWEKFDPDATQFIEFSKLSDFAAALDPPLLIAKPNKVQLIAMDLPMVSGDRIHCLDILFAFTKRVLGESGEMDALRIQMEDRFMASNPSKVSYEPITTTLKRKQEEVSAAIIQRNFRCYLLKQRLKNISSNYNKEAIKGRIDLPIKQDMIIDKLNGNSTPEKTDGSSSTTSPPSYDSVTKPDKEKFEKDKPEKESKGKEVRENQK
T4 sequence (Q9WTU3 whole entry): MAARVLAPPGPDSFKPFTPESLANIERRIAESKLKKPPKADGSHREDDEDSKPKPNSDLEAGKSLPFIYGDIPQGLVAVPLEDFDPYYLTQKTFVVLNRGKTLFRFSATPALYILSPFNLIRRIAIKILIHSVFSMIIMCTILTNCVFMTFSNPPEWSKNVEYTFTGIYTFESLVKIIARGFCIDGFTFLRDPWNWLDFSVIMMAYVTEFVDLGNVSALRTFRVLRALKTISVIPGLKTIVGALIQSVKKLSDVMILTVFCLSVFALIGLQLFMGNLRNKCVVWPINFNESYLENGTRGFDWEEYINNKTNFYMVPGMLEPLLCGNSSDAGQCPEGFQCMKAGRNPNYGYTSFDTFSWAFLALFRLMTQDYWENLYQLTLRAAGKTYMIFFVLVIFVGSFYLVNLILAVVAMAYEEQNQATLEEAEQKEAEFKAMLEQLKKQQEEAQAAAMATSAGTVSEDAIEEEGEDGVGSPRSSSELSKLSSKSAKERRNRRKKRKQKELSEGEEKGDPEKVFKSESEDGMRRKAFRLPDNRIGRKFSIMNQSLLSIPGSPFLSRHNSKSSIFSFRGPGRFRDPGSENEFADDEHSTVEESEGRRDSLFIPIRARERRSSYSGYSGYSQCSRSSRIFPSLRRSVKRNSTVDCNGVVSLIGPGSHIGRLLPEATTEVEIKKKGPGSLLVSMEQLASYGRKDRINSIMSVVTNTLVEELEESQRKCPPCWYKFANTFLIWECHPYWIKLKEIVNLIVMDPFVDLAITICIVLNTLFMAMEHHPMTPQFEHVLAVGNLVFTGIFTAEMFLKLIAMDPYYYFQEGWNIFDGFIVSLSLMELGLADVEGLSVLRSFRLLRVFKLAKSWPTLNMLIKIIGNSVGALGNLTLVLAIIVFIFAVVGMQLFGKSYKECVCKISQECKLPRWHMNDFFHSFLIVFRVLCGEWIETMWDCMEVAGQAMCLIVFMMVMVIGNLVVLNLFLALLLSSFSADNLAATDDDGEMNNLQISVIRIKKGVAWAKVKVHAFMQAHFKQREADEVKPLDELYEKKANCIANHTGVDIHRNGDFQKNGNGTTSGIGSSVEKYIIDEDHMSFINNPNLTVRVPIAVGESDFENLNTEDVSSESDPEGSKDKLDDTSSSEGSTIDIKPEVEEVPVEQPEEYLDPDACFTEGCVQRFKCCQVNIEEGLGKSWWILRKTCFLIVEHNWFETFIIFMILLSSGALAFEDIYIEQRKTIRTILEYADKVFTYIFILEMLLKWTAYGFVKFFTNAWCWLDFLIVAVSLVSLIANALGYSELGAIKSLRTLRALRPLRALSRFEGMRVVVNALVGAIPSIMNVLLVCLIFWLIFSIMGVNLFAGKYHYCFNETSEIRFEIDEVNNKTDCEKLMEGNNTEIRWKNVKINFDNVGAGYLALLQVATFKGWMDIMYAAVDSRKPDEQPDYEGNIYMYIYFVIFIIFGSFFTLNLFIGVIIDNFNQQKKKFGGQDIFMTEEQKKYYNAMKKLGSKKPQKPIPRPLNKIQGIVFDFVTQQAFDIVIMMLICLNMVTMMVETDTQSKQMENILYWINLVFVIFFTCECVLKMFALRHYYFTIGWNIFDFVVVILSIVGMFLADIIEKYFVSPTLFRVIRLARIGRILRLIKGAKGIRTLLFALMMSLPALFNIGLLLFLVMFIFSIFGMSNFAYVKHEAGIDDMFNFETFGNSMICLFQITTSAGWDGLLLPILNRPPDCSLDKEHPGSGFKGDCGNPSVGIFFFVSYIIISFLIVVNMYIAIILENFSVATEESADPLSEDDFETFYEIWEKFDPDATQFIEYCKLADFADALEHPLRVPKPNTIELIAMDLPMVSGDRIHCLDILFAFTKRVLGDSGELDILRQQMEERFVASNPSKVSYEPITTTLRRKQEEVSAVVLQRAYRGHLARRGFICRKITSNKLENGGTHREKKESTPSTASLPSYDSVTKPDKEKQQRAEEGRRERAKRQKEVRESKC

B1: 1E16 monoclonal antibody (antibody, IgG1, V domains shown)
VH: QGQMQQSGAELVKPGASVKLSCKTSGFTFSSSYISWLKQKPGQSLEWIAWIYAGTGGTSYNQKFTGKAQLTVDTSSSTAYMQFSSLTTEDSAIYYCARQDGNYRYWYFDVWGAGTTVTVSS
VL: ETTVTQSPASLSMAIGEKVTIRCITSTDIDDDMNWYQQKPGEPPKLLISEGNTLRPGVPSRFSSSGYGTDFVFTIENMLSEDVADYYCLQSDNLPLTFGGGTKLEIK
notes: also called 1E16 mAb; 1E16 Ab
IC50, sodium current at 2 Hz [1]: > 5 µM
IC50 of inhibition of human NaV1.7 currents at 0.1 Hz [2]: 0.107 µM
IC50 of inhibition of human NaV1.7 currents at 10 Hz [2]: 0.0167 µM
IC50, sodium current at 2 Hz [3]: > 5 µM
fold decrease in efficacy relative to NaV1.7 [4]: ~2 fold
fold decrease in potency relative to NaV1.7 [4]: ~200 fold
IC50, sodium current at 2 Hz [5]: > 5 µM
IC50, sodium current at 2 Hz [6]: > 5 µM
IC50, sodium current at 2 Hz [7]: > 5 µM
IC50, sodium current at 2 Hz [8]: > 5 µM
EC50 (read off the curve) [9]: ~0.02 µM
IC50 (µM), sodium current at 2 Hz [10]: 8.7 µM
Maximum inhibition (%) [10]: 16.2%
Selectivity for Nav1.7 [10]: 1520 fold
IC50 (µM), sodium current at 2 Hz [11]: 0.0307 µM
Maximum inhibition (%) [11]: 86.9%
Selectivity for Nav1.7 [11]: 1 fold
IC50 (µM), sodium current at 2 Hz [12]: 7.9 µM
Maximum inhibition (%) [12]: 21.5%
Selectivity for Nav1.7 [12]: 1040 fold
IC50 (µM), sodium current at 2 Hz [13]: 6.3 µM
Maximum inhibition (%) [13]: 44.2%
Selectivity for Nav1.7 [13]: 404 fold
IC50 (µM), sodium current at 2 Hz [14]: 5.6 µM
Maximum inhibition (%) [14]: 19.1%
Selectivity for Nav1.7 [14]: 830 fold
IC50 (µM), sodium current at 2 Hz [15]: 6.3 µM
Maximum inhibition (%) [15]: 20.7%
Selectivity for Nav1.7 [15]: 862 fold
IC50 (µM), sodium current at 2 Hz [16]: 9 µM
Maximum inhibition (%) [16]: 18.7%
Selectivity for Nav1.7 [16]: 1360 fold
IC50 (µM), sodium current at 2 Hz [17]: 5.2 µM
Maximum inhibition (%) [17]: 22.1%
Selectivity for Nav1.7 [17]: 666 fold
Kd [18]: 0.0229 µM
